For assay [1], the target named is Gonadotrophin releasing hormone 1 (GnRH1) (UniProt P01148). As to the kind of experiment: SPR.
Assay [2] shares this target. As to the kind of experiment: SPR, Biacore T200; antibody captured on goat anti-mouse IgG on a CM5 chip, GnRH injected in 2-fold dilutions from 1024 nM.
Assay [3] has the same target. As to the kind of experiment: SPR (Biacore T200): antibody captured on goat anti-mouse IgG immobilized on a CM5 chip, GnRH injected in 2-fold dilutions from 1024 nM. On the technique in general: In SPR one partner is held on a chip, and binding of the other changes the refractive index at the surface.

B1: SMI41 ascites IgG (antibody, V domains shown)
VH: QVTLKESGPGILRPSQTLDLTCSFSGFSLSTSGLSVGWIRQPSGKGLEWLAHIWWDDVKYFNPSLKSRLTISKDSSRNQVFLKITSVDTADSATYHCTRGPLGHGFDYWGQGTLVTVSA
VL: DVVMTQTPLSLPVSLGDQAFISCRSSQSLVHSDGNSYLHWYLQKPGQSPKLLIYKVSNRFSGVPDRFSGSGSGTDFTLKISRVEAEDLGLYFCSQTTHVPWTFGGGTKLEIK
With B1, in assay [1], the Kd came to 0.819 nM, the koff was 0.00467 s⁻¹ and the kon stood at 8.99e+06 M⁻¹ s⁻¹.

B2: SMI41-HEK293T-IgG (antibody, V domains shown)
VH: B1 VH
VL: DVVMTQTPLSLPVSLGDQAFISCRSSQSLVHSDGNSYLHWYLQKPGQSPKLLIYKVSNRFSGVPDRFSGSGSGTDFTLKISRVEAEDLGLYFCSQTTHVPWTFGGGTKLEIKR
For B2, in assay [2], the Kd turned out to be 0.592 nM, the koff stood at 0.00282 s⁻¹ and the kon is 4.76e+06 M⁻¹ s⁻¹. In assay [1], this molecule yielded a Kd of 0.592 nM, a koff of 0.00282 s⁻¹ and a kon of 4.76e+06 M⁻¹ s⁻¹.

B3: HB-9094-HEK293T-IgG (antibody, V domains shown)
VH: QIQLVQSGPELKKPGETVKISCKASGYPFTNYGMNWVKQAPGKGLKWMGWINTYTGEPACADDFRGRFAISLETSARTAYLQINNLINEDTATYFCARTGGGRYNYGMDYWGQGTSVTVSS
VL: QIVLTQSPAIMSASPGEKVTITCSATSSVSYIHWFQQKPGTSPKLWIYSTSNLASGVPVRFSGSGSGTSYSLTISRMEAEDAATYYCQQRSSYPPTFGGGTKLEIKR
Take B3: in assay [2], the Kd amounted to 0.918 nM, the koff came out at 0.000249 s⁻¹ and the kon came out at 272000 M⁻¹ s⁻¹. Moreover, in assay [1], the Kd came out at 0.918 nM, the koff amounted to 0.000249 s⁻¹ and the on-rate constant (kon) turned out to be 272000 M⁻¹ s⁻¹. The molecule further gave a Kd in assay [3] of 0.27 nM.

What is called Kd is the equilibrium constant for the complex coming apart. A low value points to tighter binding. A word on the koff: it is the rate constant with which the complex falls apart. The kon is a measure of how fast the partners come together.

(Values after patent US20140223591A1.)
